# B1: THAP1; numbered along this chain (parent)
# chain: MVQSCSAYGCKNRYDKDKPVSFHKFPLTRPSLCKEWEAAVRRKNFKPTKYSSICSEHFTPDCFKRECNNKLLKENAVPTIFLCTEPHDKKEDLLEPQEQLPPPPLPPPVSQVDAAIGLLMPPLQTPVNLSVFCDHNYTVEDTMHQRKRIHQLEQQVEKLRKKLKTAQQRCRRQERQLEKLKEVVHFQKEKDDVSERGYVILPNDYFEIVEVPA
# Variants of: B1
# Assay: THAP1 transcriptional activity (GFP+/GFP- enrichment relative to wild-type constructs) (ratio to WT); higher = more THAP1 activity (PSMB5 reporter activation)
# Conditions: with PSMB5 promoter-GFP reporter
# Outline: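 Activity values are replicate-mean bright/dim read fold changes divided by the mean of wild-type synonymous constructs. They come from a human THAP1 site-saturation library (residues 2–213, each changed to all 20 amino acids) delivered by lentivirus at MOI ~0.3, in duplicate, into THAP1-knockout HEK-293T cells with mClover3 at endogenous PSMB5. BFP+ cells were sorted into GFP-dim and GFP-bright bins after five days, and variants were counted by Illumina sequencing of genomic DNA amplicons.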
row,Variant,THAP1 transcriptional activity
1,Q173S,0.592
2,Q173E,0.149
3,Q173L,0.611
4,Q173W,0.284
5,Q173A,0.888
6,Q173T,1.1
7,Q173H,0.693
8,Q173V,1.27
9,Q173D,0.232
10,Q173R,0.58
11,Q173G,0.386
12,Q173F,0.425
13,T165Y,0.379
14,T165V,0.976
15,T165I,0.755
16,T165S,1.6
17,T165H,0.785
18,T165F,0.262
19,T165C,1.22
20,T165R,0.898
21,T165E,0.6
22,T165D,0.416
23,T165K,0.633
24,T165P,0.196

row,Variant,THAP1 transcriptional activity
1,T165N,1.38
2,T165W,0.39
3,T165Q,0.517
4,T165L,0.668
5,E178P,0.226
6,E178G,0.795
7,E178Y,0.632
8,E178S,1.45
9,E178H,0.957
10,E178T,1.26
11,E178A,0.976
12,E178I,0.832
13,E178K,1.59
14,E178V,0.568
15,E178D,0.665
16,E178C,0.927
17,E178M,0.795
18,E178W,0.7
19,E178L,1.02
20,E178N,0.394
21,E178F,0.529
22,Q168D,0.417
23,Q168K,0.394
24,Q168V,0.249

row,Variant,THAP1 transcriptional activity
1,Q168N,0.781
2,Q168H,0.394
3,Q168R,0.446
4,Q168W,0.157
5,Q168L,0.433
6,Q168G,0.391
7,Q168C,0.512
8,Q168P,0.186
9,Q168S,0.477
10,Q168Y,0.173
11,Q168F,0.256
12,Q168E,0.498
13,Q168T,0.711
14,K164Y,0.307
15,K164R,1.17
16,K164W,0.146
17,K164G,0.106
18,K164A,0.337
19,K164E,0.343
20,K164Q,0.304
21,K164I,0.252
22,K164S,0.326
23,K164P,0.28
24,K164D,0.173

row,Variant,THAP1 transcriptional activity
1,K164L,0.298
2,K164V,0.218
3,K164N,0.306
4,K164F,0.167
5,K164H,0.316
6,K164M,0.258
7,C170A,0.663
8,C170K,0.26
9,C170Y,0.702
10,C170M,0.824
11,C170T,0.457
12,C170S,0.425
13,C170H,0.411
14,C170W,0.208
15,C170N,0.728
16,C170R,0.609
17,C170E,0.194
18,C170F,0.35
19,C170Q,0.604
20,C170D,0.173
21,C170L,0.894
22,C170G,0.353
23,C170P,0.15
24,R175F,0.33

row,Variant,THAP1 transcriptional activity
1,R175G,0.388
2,R175I,0.699
3,R175C,0.503
4,R175Y,0.619
5,R175W,0.507
6,R175D,0.345
7,R175A,0.506
8,R175P,0.102
9,R175H,0.492
10,R175T,0.382
11,R175K,1.17
12,R175Q,0.653
13,R175N,0.379
14,R175L,0.692
15,R175E,0.554
16,K179W,0.364
17,K179T,0.568
18,K179D,0.403
19,K179N,0.51
20,K179L,0.546
21,K179I,0.633
22,K179G,0.4
23,K179P,0.213
24,K179C,0.34

row,Variant,THAP1 transcriptional activity
1,K179H,0.616
2,K179Q,0.656
3,K179A,0.727
4,K179F,0.421
5,K179M,0.465
6,K179V,0.388
7,K179Y,0.661
8,K162A,0.4
9,K162S,0.461
10,K162N,0.185
11,K162F,0.177
12,K162M,0.318
13,K162P,0.15
14,K162G,0.11
15,K162L,0.417
16,K162E,0.269
17,K162D,0.27
18,K162Q,0.612
19,K162T,0.273
20,K162Y,0.188
21,K162H,0.273
22,K162C,0.329
23,K162W,0.206
24,K162V,0.232

row,Variant,THAP1 transcriptional activity
1,K162I,0.164
2,K161R,0.649
3,K161E,0.167
4,K161A,0.3
5,K161S,0.639
6,K161G,0.289
7,K161D,0.188
8,K161V,0.461
9,K161P,0.172
10,K161I,0.452
11,K161M,0.518
12,K161C,0.37
13,K161N,0.475
14,K161W,0.242
15,K161L,0.441
16,K161T,0.505
17,K161H,0.451
18,K161Y,0.195
19,K161F,0.232
20,E174D,0.712
21,E174S,0.847
22,E174V,0.568
23,E174P,0.189

# From the supplement of paper PMC11811203
